Laboratory results published in patent publication US11041003B2, “Crystal structure of Staphylococcus aureus clumping factor A in complex with fibrinogen derived peptide and uses thereof” (THE TEXAS A&M UNIVERSITY SYSTEM, priority 2008, dated 2021).
Where a SMILES comes first, the peptide text is derived from it.

What was measured:
αIIbβ3 = αIIbβ3 (Homo sapiens, UniProt P05106+P08514); experiment: Integrin (αIIbβ3) inhibition assay: inhibition of full length Fg binding to αIIbβ3; conditions: 10 nM full length Fg, inhibitory ELISA type assay
Method: For αIIbβ3 inhibition assay. αIIbβ3Immulon 4HBX Microtiter 96-well plates (Thermo) were coated with αIIbβ3 ([…]) in TBS (25 mM Tris, 3 mM KCl, 140 mM NaCl, pH 7.4) over night at 4° C. The wells were washed with TBS containing 0.05% (w/v) Tween-20 (TBST). After blocking with 3% (w/v) BSA dissolved in TBS for 1 h at RT, 10 nM of full length Fg was applied in the presence of either WT γ^1-17, γ^1-17D16A or γ^1-17K12A peptides and plates were incubated at RT for another hour. The bound full length Fg was then detected by goat anti human Fg (1:1000 dilution, Sigma) antibody followed by horseradish peroxidase-conjugated rabbit anti-goat IgG antibody (1:1000 dilution, Cappel). After incubation with 0.4 mg/ml of substrate, o-phenylenediamine dihydrochloride (OPD, Sigma) dissolved in phosphate-citrate buffer, pH 5.0, bound antibodies were determined in an ELISA reader at 450 nm. The proteins, antibodies and peptides were diluted in TBST containing 1% (w/v) BSA, 2 mM MgCl2, 1 mM of CaCl2 and MnCl2.
To examine this possibility, the ability of the synthesized Fg WT g^1-17 and mutated peptides (g^1-17D16A and g^1-17K12A) to inhibit full length Fg binding to αIIbβ3 was analyzed by inhibitory ELISA type assay (FIG. 6).

GST-Fg γ^1-17 = target: T1, GST-Fg γ^1-17 (Homo sapiens, UniProt P02679); experiment: ELISA-type binding of ClfA proteins to immobilized GST-Fg γ^1-17; conditions: GST Fg γ^1-17 coated in microtiter wells; read-out: apparent Kd for GST-Fg γ^1-17
T1 construct: made in house; host or cells: Escherichia coli

Compound	inhibition of full length Fg binding to αIIbβ3 (αIIbβ3)	inhibition of full length Fg binding to αIIbβ3 (αIIbβ3; listed as Fg-γ^1-17)	Kd (GST-Fg γ^1-17) [nM]	inhibition of full length Fg binding to αIIbβ3 (αIIbβ3; listed as γ^1-17K12A)
CC(C)C[C@H](NC(=O)[C@H](Cc1c[nH]cn1)NC(=O)[C@H](Cc1c[nH]cn1)NC(=O)[C@H](CCC(N)=O)NC(=O)[C@H](CCC(N)=O)NC(=O)CNC(=O)[C@H](CCC(=O)O)NC(=O)CN)C(=O)NCC(=O)NCC(=O)N[C@@H](C)C(=O)N[C@@H](CCCCN)C(=O)N[C@@H](CCC(N)=O)C(=O)N[C@@H](C)C(=O)NCC(=O)N[C@@H](CC(=O)O)C(=O)N[C@H](C(=O)O)C(C)C [g^1-17] (H-GEGQQHHLGGAKQAGDV-OH; N-terminus and C-terminus assumed)	completely inhibited	inhibits	–	–
ClfA229-545: recombinant His-tag ClfA construct, residues 229-545 of SEQ ID NO:35, composed only of the N2 N3 domains	–	–	222	–
g^1-17K12A: Fg γ 395-411 peptide with Lys12→Ala (GEGQQHHLGGAAQAGDV)	weakly inhibited	–	–	very little inhibitory effect
